Like-named read-outs stand apart in the source and are kept apart here. Primed or numbered codes have the meaning given here. No end group written: not given here. *: point of attachment. MBPA″ = 4-maleimidobutylphosphonic acid, conjugated to the N-terminal cysteine, O=C1CC(*)C(=O)N1CCCCP(=O)(O)O; MBPA = 4-maleimidobutylphosphonic acid, O=C1CC(*)C(=O)N1CCCCP(=O)(O)O
B1: MBPA-C-FG30 (peptide)
chain: C(MBPA)FGNNKLTTFGSSTTSAPSFGTTSGGLFGNK-NH2
modifications: also: uniform 15N,13C labels at L6, S11, A16, F19, T22, G28 (LSAFTG) or G2, G10, G20, G29 (4G)

Tests used:
[1] = 4° C; thermodynamic, from 7.1 mM (23 mg/ml) solutions in Bis-Tris buffer pH 6.5 (printed 0.2 mM), incubated four days with brief bath sonication once per day; centrifuged 16,000 x g 15 min, 0.1 μm filter; absorbance at 260 nm, triplicate
Procedure: After incubation, solutions were centrifuged at 16,000 × g for 15 min, yielding visible pellets at each temperature. Supernatants were then passed through 0.1 μm centrifugal filters (Millipore Ultrafree, 0.5 ml volume) and diluted with H2O by factors of four. Peptide concentrations were determined from absorbance measurements at 260 nm, performed in triplicate, using an extinction coefficient of 1070 M^−1 cm^−1 that was determined from the absorbance of the initial solutions.

[2] = Aggregation / fibril formation in free solution (TEM, solubility); type: physicochemical; conditions: 10 mM peptide, Bis-Tris buffer pH 6.5, after six days of incubation at 4° C, 24° C or 37° C
Procedure: Aggregated MBPA-C-FG30 for transmission electron microscopy (TEM) was prepared by dissolving 2.0 mg of purified and lyophilized MBPA-C-FG30-LSAFTG in 60 μl of 0.2 M Bis-Tris buffer (pH 6.5) to produce a 10 mM peptide solution. The solution was evenly divided into three 20 μl aliquots, each transferred into a 0.2 ml tube. The three tubes were incubated quiescently for 6 days at temperatures of 4° C, 24° C, and 37° C. After incubation, each sample was briefly vortexed, and 3 μl was withdrawn for subsequent TEM imaging, as described below.
Transmission electron microscope (TEM) images were acquired with an FEI Morgagni microscope, operating at 80 kV, and a side-mounted Advantage HR camera (Advanced Microscopy Techniques). TEM grids were lacey carbon on 300 mesh copper (Electron Microscopy Sciences), upon which carbon films were deposited by flotation. Solutions containing aggregated MBPA-C-FG30 were diluted 100-fold in H2O, then adsorbed in 10 μl aliquots to glow-discharged grids for 90 s. Grids were blotted, rinsed with H2O, blotted, rinsed again, blotted, and stained with 2% w/v uranyl acetate for 15 s before final blotting and drying in air.
Figure 5: TEM images of aggregated MBPA-C-FG30, negatively stained with uranyl acetate. […]

[3] = equilibrium solubility (centrifugation, filtration, absorbance of the supernatant at 260 nm); 7.1 mM solution in Bis-Tris buffer pH 6.5, 4 days at 24 °C with brief daily bath sonication; 16,000 x g 15 min, 0.1 um filter; monomer left over aggregates; conditions: other: equilibrium solubility (centrifugation, filtration, absorbance of the supernatant at 260 nm)
[4] = equilibrium solubility (centrifugation, filtration, absorbance of the supernatant at 260 nm); 7.1 mM solution in Bis-Tris buffer pH 6.5, 4 days at 40 °C with brief daily bath sonication; 16,000 x g 15 min, 0.1 um filter; monomer left over aggregates; conditions: other: equilibrium solubility (centrifugation, filtration, absorbance of the supernatant at 260 nm)
[5] = equilibrium solubility (centrifugation, filtration, absorbance of the supernatant at 260 nm); 7.1 mM solution in Bis-Tris buffer pH 6.5, 4 days at 4 °C with brief daily bath sonication; 16,000 x g 15 min, 0.1 um filter; monomer left over aggregates; conditions: other: equilibrium solubility (centrifugation, filtration, absorbance of the supernatant at 260 nm)

Molecule	equilibrium solubility [1] [mM]	morphology of aggregated material (negative-stain TEM) [2]	equilibrium solubility [3] [mM]	equilibrium solubility [4] [mM]	equilibrium solubility [5] [mM]
MBPA-C-FG30: C-FG30 with 4-maleimidobutylphosphonic acid conjugated to the N-terminal cysteine (C(MBPA″)FGNNKLTTFGSSTTSAPSFGTTSGGLFGNK-NH2; also: uniform 15N,13C labels at L6, S11, A16, F19, T22, G28 or at G2, G10, G20, G29 (FG30 numbering))	4.5 ± 0.2	straight, unbranched assemblies	–	–	–
B1	–	–	1.60 ± 0.04	1.92 ± 0.08	4.5 ± 0.2

Source: publication doi:10.1101/2025.09.11.675621, “Effects of Nanopore Confinement on the Conformational, Dynamical, and Self-Assembly Properties of an FG-Repeat Peptide” (bioRxiv, 2025)
